Measurements as given in a protein production outcome set (Wang et al. 2014).

assay: label from the status in PepcDB records

Sequence	protein production
EQEDRALRSFKLSVTVDPKYHPKIIGRKGAVITQIRLEHDVNIQFPDKDDGNQPQDQITITGYEKNTEAARDAILRIVGELEQM	not failed
EQITHWIVVQQDTTEQQRVQQAMRTQRDRLQRMQGVAQTGGWEYDPKSDSFTGSNEFYRLIGLPQSTNFDLERAFQLYPPSVRGRVKTAAQRCLEDGSPFDMEVPLVSATGQHREVRVRGSAEREEG	failed
EQNSKEKFKQLFRVLEDTFARPLSPYEIETLNQWIDVDKHDSAIIQAALDEANSLNKLSFKYMDRILLNWKKNNV	failed
ERIPLAVGDTPATLYRLEGDAEAPLAVVTHGFGGSRQMMEAISLTLARAGLAVVSFDFRGQGRSAIPMSPDAFPNEAGSSGTTVQLVRQTLEVVEAARALPGIAGPPALIGHSMATDILVRAADRLPEVGPVALISAYSRQVTPETPARLLILSGQREGGLREVALEMARQVAPDAAEGETVRAGAVERRASVAPYVGHAGVLWSPTTLRELRDWL	failed
ERRGFSAEDFKTFHPGGKLGSQLLLAHELAHSGEAVPLLPIGSPMSEAVIQMSSKGFGVVGVVGGDGELVGVITDGDLRRHMSQSLLLLTVETVMSHMPRVITPGMLASAAMEMMQSQKITVLFLVDDVGRPSGILHVHDLLRA	failed
ERRKTLETYQQLFYLLQTNPLYLAKLIFQMPQNKSTKFMDTVIFTLYNYASNQREEYLLLKLFKTALEEEIKSKVDQVQDIVTGNPTVIKMVVSFNRGARGQNTLRQLLAPVVKEIIDDKSLIINTNPVEVYKAWVNQL	failed
ESILANLSAGVIAFSGDWHIRAANTSASRILGVDFSQLAEHRFPEWGGVMPAVASLVETVMQHADSDVESDWQTQLGYDTAQGERTLLVRGARLPEHSSDGYVLVFNDITE	failed
ESYTIPHPSYDQPDSYQEREIVIGNSTYPLPATLTVPKHQRGEKVPVVVLVHGAGIHDRDATYLGTKILRDLAVGLSSNGIAVLRYEKRTLEHALKMSAEPVTLDRDTTDDAIYAAKSAAQQEGIDPNNIFILGHSQGAGTMPRILSKAPSSLVRGSILLAPPAHPLTDIAIDQYQYLGKPQEEIDELKRQAAFIQDPTFNPDHPPAGYNFGSPHFMYDVSRWRPVEEAKSRKEPLLILQGARDYQVTVKNEYTKWQEGLANRRNVQFKKYPKLNHFFTEGDGELSLPSEYEIPANVPEYVIQDIITWVNETK	failed
ESYWRSRMIDAVTSDEDKVAPVYKLEEICDLLRSSHVSIVKEFSEFILKRLDNKSPIVKQKALRLIKYAVGKSGSEFRREMQRNSVAVRNLFHYKGHPDPLKGDALNKAVRETAHETISAIFSEENG	not failed
ETPVGLNLELTDQDGRPMFPDGSAVPYERTRKLVARLAAPLRATSLRVIIVGHTAATVVQAGDDDPLSLSVNRANAVREVLKQEGLPSSQVLSLVGKGDGEPLFPDAPALAANRRVTITLMRENPPLPPDLQR	failed
ETRIIKGFECKPHSQPWQAALFEKTRLLCGATLIAPRWLLTAAHCLKPRYIVHLGQHNLQKEEGCEQTRTATESFPHPGFNNSLPNKDHRNDIMLVKMASPVSITWAVRPLTLSSRCVTAGTSCLISGWGSTSSPQLRLPHTLRCANITIIEHQKCENAYPGNITDTMVCASVQEGGKDSCQGDSGGPLVCNQSLQGIISWGQDPCAITRKPGVYTKVCKYVDWIQETMKNN	failed
EVALRHPQSPKPCLIGNCQGGWAILTLMAANPDVAGVAVVNGAPLSYWGGENGKNPMRYIGGIWGGSWIAQMAGDLGNGKFDGANLVMNFEMANPKVTYWSKYYNLFANLDKEEIRFLNFERWWGGFSLLNVNEMRGIIDNLFIGNKLVHGKIPLGQSGNNLDLRNISVPVIIFCSEGDNITPPQQALNWVSDLYSNTLEIKLDGQVIVYLIHKSVGHLGIFVSSEVAKKEHNQIIDLLN	not failed
EYQVLNLFICGIGTVGGSLVEQIRCQQQKLMMENGLKLHVVGIIDAAKAMFSREGFDLANFREELQKKGKDSNLQTIRDEIVGMNIFNSVFVDCTASPDIASLYKDLLQHNVSVVAANKIAASSAYENYRELKTIARQRGVKYLFETNVGAGLPIINTINDLIHSGDKILKIEAVLSGTLNYIFNK	failed
FCGRARVHTDFTPSPYDTDSLKLKKGDIIDIISKPPMGTWMGLLNNKVGTFKFIYVDVLS	not failed
FDASTLYVPEDFLNSCTPGMRKWWQIKSQNFDLVICYKVGKFYELYHMDALIGVSELGLVFMKGNWAHSGFPEIAFGRYSDSLVQKGYKVARVEQTETPEMMEARCRKMAHISKYDRVVRREICRIITKGTQTYSVLEGDPSENYSKYLLSLKEKEEDSSGHTRAYGVCFVDTSLGKFFIGQFSDDRHCSRFRTLVAHYPPVQVLFEKGNLSKETKTILKSSLSCSLQEGLIPGSQFWDASKTLRTLLEEEYFREKLSDGIGVMLPQVLKGMTSESDSIGLTPGEKSELALSALGGCVFYLKKCLIDQELLSMANFEEYIPLDSDTVSTTRSGAIFTKAYQRMVLDAVTLNNLEIFLNGTNGSTEGTLLERVDTCHTPFGKRLLKQWLCAPLCNHYAINDRLDAIEDLMVVPDKISEVV	failed
FDGNLKRYLKSEPIPESNDGPVKVVVAENFDEIVNNENKDVLIEFYAPWCGHCKNLEPKYKELGEKLSKDPNIVIAKMDATANDVPSPYEVRGFPTIYFSPANKKLNPKKYEGGRELSDFISYLQREAT	not failed
FHWVNDGYADFDGFLAALSSRKRKAIRKERAQAQGFGGQIRELTGGDLRPEHWDAFWRFYQDTGARKWGSPYLTRAFFDIAHQTMADDMVLVLAERDGIPVAGALNFIGREALFGRYWGCVEHHPCLHFELCYYRAIDWAIAHGLARVEAGAQGEHKLARG	not failed
FKGKNLLVIQVESLENFVINKSVNGQEITPNLNKLLKNSLYFSNYNEEVNQGTTSDAELMTNTSIYPVSTGSTFFRYPDNKYYNSLPKILERQGYYTQAMHGDKGSYWNWKPALKSIGFQNIVDSTGFKDDENIGLGLSDGSFLRQAEPMVEASKGPWYNYVITMSGHAPFDLPTKYRELKINSELDSSYLGGYLQSVHYEDKQIGIFLDNLRKSGALDNTMVVIYGDHCGIHKYYQSDVETTKGAESWMIDNHKEVPLIVYNSSLKGKEITTTGGQIDLMPTILYLMGIDKNEYLNTAMGRNLLNTNESYAVWSNGEFIG	failed
FLEVNYYSRVLGMNRVMNVLLPEESDHNPNWTNDSLKDLPVLYLLHGMSGNHFDWQRKSDIERLLRQTKLAVIMPAADLAWYTNTDYGMNYFDAISQELPRKVASLFPQISTKRKKHFVAGMSMGGYGAFKLAFSSSYFSYAASLSGTLISSLNYPGFLDMEKQAYWKGIFGDLDKFSGSKNDIFELAKRQSNTGIELPKLYAWVGQQDFFYGANEKAIPRLRKMGYDVSYETNPGDHEWYYWSKYIENILQWLPINYQAEKRLS	failed
FPIPLPYCWLCRALIKRIQAMIPKGALAVAVAQVCRVVPLVAGGICQCLAERYSVILLDTLLGRMLPQLVCRLVLRCSM	failed
FRAAAVRVRVPATSANLGPGFDALGLALGLYDDVVVRVADSGLHIDIAGEGSETLPRDEKHLLVRSLRTAFDLLGGQPRGLEIVCANRIPHGRGLGSSSAAICAGIVAARAVTIGGEARLDDAALLDLATEIEGHPDNVAACLLGGFTLSWMES	failed
GAEKEDLVQEGILGLLKAIKFYDETKSSFSSFAFLCIRREMISAIRKANTQKHMVLNEALKTNAILEDSAYFDDEGHNINNYKSSESNPEEAYLLKEEIEEFKKFSENNFSKFEKEVLTYLIRGYSYREIATILSKNLKSIDNTIQRIRKKSEEWIKEEENIKR	not failed
GDGLKVSFDVTNTGKVAGADTPQLYVTSGQRKAMLRLAGFQKVDLAPGETKRVTLNVEPRILADYDTAKPGWTIAAGTYPLYVGRNAGEPVLTGSAKLKSWSR	failed
GEERKSSSWGRVDAMELPNYSRQLLQQLYTLCKEQQFCDCTISIGTIYFRAHKLVLAAASLLFKTLLDNTDTISIDASVVSPEEFALLLEMMYTGKLPVGKHNFSKIISLADSLQMFDVAVSCKNLLTSLVNCSVQGQVVRDVSAPSSETFRKEPEKPQVEILSSEGAGEPHSSPELAATPGGPVKAETEEAAHSVSQEMSVNSPTAQESQRNAETPAETPTTAEACSPSPPVQTFSEAKKTSTEPGCERKHYQLNFLLENEGVFSDALMVTQDVLKKLEMCSEIKGPQKEMIVKCFEGEGGHSAFQRILGKVREESLDVQTVVSLLRLYQYSNPAVKTALLDRKPEDVDTVQPKGSTEEGKTLSVLLLEHKEDLIQCVTQLRPIMESLETAKEEFLTGTEKRVILNCCEGRTPKETIENLLHRMTEEKTLTAEGLVKLLQAVKTTFPNLGLLLEKLQKSATLPSTTVQPSPDDYGTELLRRYHENLSEIFTDNQILLKMISHMTSLAPGEREVMEKLVKRDSGSGGFNSLISAVLEKQTLSATAIWQLLLVVQETKTCPLDLLMEEIRREPGADAFFRAVTTPEHATLETILRHNQLILEAIQQKIECKLFTSEEEHLAETVKEILSIPSETASPEASLRAVLSRAMEKSVPAIEICHLLCSVHKSFPGLQPVMQELAYIGVLTKEDGEKETWKVSNKFHLEANNKEDEKAAKEDSQPGEQNDQGETGSLPGQQEKEASASPDPAKKSFICKACDKSFHFYCRLKVHMKRCRVAKSKQVQCKECSETKDSKKELDKHQLEAHGAGGEPDAPKKKKKRLPVTCDLCGREFAHASGMQYHKLTEHFDEKPFSCEECGAKFAANSTLKNHLRLHTGDRPFMCKHCLMTFTQASALAYHTKKKHSEGKMYACQYCDAVFAQSIELSRHVRTHTGDKPYVCRDCGKGFRQANGLSIHLHTFHNIEDPYDCKKCRMSFPTLQDHRKHIHEVHSKEYHPCPTCGKIFSAPSMLERHMVTHVGGKPFSCGICNKAYQQLSGLWYHNRTHHPDVFAAQNHRSSKFSSLQCSSCDKTFPNTIEHKKHIKAEHADMKFHECDQCKELFPTPALLQVHVKCQHSGSQPFRCLYCAATFRFPGALQHHVTTEHFKQSETTFPCELCGELFTSQAQLDSHLESEHPKVMSTETQAAASQMAQVIQTPEPVAPTEQVITLEETQLAGSQVFVTLPDSQASQASSELVAVTVEDLLDGTVTLICGEAK	not failed
GEVKQIVGTPRDITQRKRREQMLKSRRRKIEALYRATSGLLSVETRDAVPGRIAEVLQEVFDFPLRHVGLVEGEMLVPKETVGEDLSRMPEPKAQPLSEDLVATRAIQAGEAVVVESTGGLENDLDYGTLSTLAGIPIGGHGAVVVGKEAGTFDALDLRLLEVLGGYGTLVLGRLEREERLVQAREEAEEAAQLKSAMLANMSHEVRTP	failed
GGVMHYTDKAALPADGEAREVAALFDTWNAALATGNPHKVADLYAPDGVLLPTVSNEVRASREQIENYFEMFLTKKPKGVINYRTVRLLDDDSAVDAGVYTFTLTDKNGKKSDVQARYTFVYEKRDGKWLIINHHSSAMPEVDTATATAAVTKAK	not failed
GHMEERVLGMPAVESNMFPLGKQAPPFALTNVIDGNVVRLEDVKSDAATVIMFICNHCPFVKHVQHELVRLANDYMPKGVSFVAINSNDAEQYPEDSPENMKKVAEELGYPFPYLYDETQEVAKAYDAACTPDFYIFDRDLKCVYRGQLDDSRPNNGIPVTGESIRAALDALLEGRPVPEKQKPSIGCSIKWKPSA	not failed
GHMPTKQQLLYEGKAKKIYATDEPDVLWVEYKDSATAFNGEKKATIAGKGRLNNEISSLLFLKLREAGIANHFIEKLSPTEQLVRRVTIIPLEVVVRNVVAGSLAKRIGLEEGTPLEAPLVEFYYKNDDLGDPLLLEDHIFILKLASREEVAALKQAALAVNDVLRLHFAERNVRLIDFKLEFGRTADGAILLADEISPDTCRLWDAKTNEKLDKDVFRRDLGSLTDAYEVILQRLGGESACTK	not failed
GHPTEVLCLMNMVLPEELLDDEEYEEIVEDVRDECSKYGLVKSIEIPRPVDGVEVPGCGKIFVEFTSVFDCQKAMQGLTGRKFANRVVVTKYCDPDSYHRRDFW	not failed
